target: 14-3-3τ (UniProt P27348); assay: cell-based or functional assay
Sequence (P27348 whole entry): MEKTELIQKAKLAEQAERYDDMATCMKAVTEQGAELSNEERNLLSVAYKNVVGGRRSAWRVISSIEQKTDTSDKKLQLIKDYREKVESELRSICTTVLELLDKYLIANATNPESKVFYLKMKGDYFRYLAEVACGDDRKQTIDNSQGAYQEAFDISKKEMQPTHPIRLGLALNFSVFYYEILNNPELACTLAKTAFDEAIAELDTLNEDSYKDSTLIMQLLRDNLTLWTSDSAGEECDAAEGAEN

| Substance | % Fluorescence Enhancement on phosphorylation, no quenching dye | PKA-induced fluorescence change; Alizarin Red 5x | PKA-induced fluorescence change; Alizarin Red 10x | PKA-induced fluorescence change; Alizarin Red 25x | PKA-induced fluorescence change; Alizarin Red 50x | PKA-induced fluorescence change; Aniline Blue WS 5x | PKA-induced fluorescence change; Aniline Blue WS 10x | PKA-induced fluorescence change; Aniline Blue WS 25x | PKA-induced fluorescence change; Aniline Blue WS 50x | PKA-induced fluorescence change; Chlorazol Black E 5x |
| --- | --- | --- | --- | --- | --- | --- | --- | --- | --- | --- |
| P2, Ac-GRTGRRDap(Pyr)SYP-amide, serine-phosphorylated by PKA in the assay (peptide) | 51% | 1.59 fold | 1.38 fold | 1.37 fold | 1.3 fold | 1.85 fold | 2.48 fold | 2.52 fold | 1.83 fold | 2.26 fold |
| P3, Ac-GRTDap(Pyr)RRFSYP-amide, serine-phosphorylated by PKA in the assay (peptide) | 19% | 1.28 fold | 1.21 fold | 1.17 fold | 1.05 fold | 1.5 fold | 2.17 fold | 3.79 fold | 0.99 fold | 1.79 fold |
| P4, Ac-GRDap(Pyr)GRRFSYP-amide, serine-phosphorylated by PKA in the assay (peptide) | 40% | 1.36 fold | 1.33 fold | 1.23 fold | 1.07 fold | 2.34 fold | 4.82 fold | 5.58 fold | 1.4 fold | 4.01 fold |
| phosphorylated P5 peptide AcDap(Pyr)RTGRRFS(PO3 2-)YP-amide | 64% | 1.7 fold | 1.59 fold | 1.49 fold | 1.5 fold | 3.02 fold | 5.36 fold | 6.04 fold | 1.23 fold | 5.62 fold |

same assay, conditions: not given

| Substance | PKA-induced fluorescence change; Chlorazol Black E 10x | PKA-induced fluorescence change; Chlorazol Black E 25x | PKA-induced fluorescence change; Chlorazol Black E 50x | PKA-induced fluorescence change; Eriochrome Black T 5x | PKA-induced fluorescence change; Eriochrome Black T 10x | PKA-induced fluorescence change; Eriochrome Black T 25x | PKA-induced fluorescence change; Eriochrome Black T 50x | PKA-induced fluorescence change; Evans Blue 5x | PKA-induced fluorescence change; Evans Blue 10x | PKA-induced fluorescence change; Evans Blue 25x |
| --- | --- | --- | --- | --- | --- | --- | --- | --- | --- | --- |
| P2, Ac-GRTGRRDap(Pyr)SYP-amide, serine-phosphorylated by PKA in the assay (peptide) | 2.84 fold | 0.6 fold | 0.35 fold | 1.46 fold | 1.42 fold | 1.13 fold | 3.71 fold | 1.92 fold | 1.37 fold | 1.01 fold |
| P3, Ac-GRTDap(Pyr)RRFSYP-amide, serine-phosphorylated by PKA in the assay (peptide) | 0.71 fold | 0.92 fold | 0.25 fold | 1.1 fold | 1.02 fold | 0.58 fold | 0.31 fold | 1.1 fold | 1.06 fold | 1.06 fold |
| P4, Ac-GRDap(Pyr)GRRFSYP-amide, serine-phosphorylated by PKA in the assay (peptide) | 0.93 fold | 0.55 fold | 0.87 fold | 1.32 fold | 1.12 fold | 0.59 fold | 0.59 fold | 0.98 fold | 0.91 fold | 0.89 fold |
| phosphorylated P5 peptide AcDap(Pyr)RTGRRFS(PO3 2-)YP-amide | 1.52 fold | 0.21 fold | 0.25 fold | 1.61 fold | 1.73 fold | 0.84 fold | 1.12 fold | 1.33 fold | 0.92 fold | 0.84 fold |

same assay, conditions: not given

| Substance | PKA-induced fluorescence change; Evans Blue 50x | PKA-induced fluorescence change; Ponceau S 5x | PKA-induced fluorescence change; Ponceau S 10x | PKA-induced fluorescence change; Ponceau S 25x | PKA-induced fluorescence change; Ponceau S 50x | PKA-induced fluorescence change; Reactive Blue 2 5x | PKA-induced fluorescence change; Reactive Blue 2 10x | PKA-induced fluorescence change; Reactive Blue 2 25x | PKA-induced fluorescence change; Reactive Blue 2 50x | PKA-induced fluorescence change; Rose Bengal 5x |
| --- | --- | --- | --- | --- | --- | --- | --- | --- | --- | --- |
| P2, Ac-GRTGRRDap(Pyr)SYP-amide, serine-phosphorylated by PKA in the assay (peptide) | 0.94 fold | 1.93 fold | 1.92 fold | 4.61 fold | 6.57 fold | 1.99 fold | 2.08 fold | 5.66 fold | 6.3 fold | 2.58 fold |
| P3, Ac-GRTDap(Pyr)RRFSYP-amide, serine-phosphorylated by PKA in the assay (peptide) | 0.99 fold | 1.81 fold | 2.26 fold | 2.75 fold | 2.88 fold | 1.48 fold | 2.29 fold | 3.56 fold | 1.68 fold | 2.7 fold |
| P4, Ac-GRDap(Pyr)GRRFSYP-amide, serine-phosphorylated by PKA in the assay (peptide) | 0.91 fold | 2.26 fold | 2.63 fold | 2.88 fold | 2.69 fold | 2.16 fold | 2.66 fold | 3.55 fold | 4.27 fold | 6.52 fold |
| phosphorylated P5 peptide AcDap(Pyr)RTGRRFS(PO3 2-)YP-amide | 0.78 fold | 2.85 fold | 3.3 fold | 3.23 fold | 4.36 fold | 2.28 fold | 3.99 fold | 6.44 fold | 5.79 fold | 8.36 fold |

same assay, conditions: not given

| Substance | PKA-induced fluorescence change; Rose Bengal 10x | PKA-induced fluorescence change; Rose Bengal 25x | PKA-induced fluorescence change; Rose Bengal 50x | PKA-induced fluorescence change; Tartrazine 5x | PKA-induced fluorescence change; Tartrazine 10x | PKA-induced fluorescence change; Tartrazine 25x | PKA-induced fluorescence change; Tartrazine 50x | PKA-induced fluorescence change; Trypan Blue 5x | PKA-induced fluorescence change; Trypan Blue 10x | PKA-induced fluorescence change; Trypan Blue 25x |
| --- | --- | --- | --- | --- | --- | --- | --- | --- | --- | --- |
| P2, Ac-GRTGRRDap(Pyr)SYP-amide, serine-phosphorylated by PKA in the assay (peptide) | 2.87 fold | 1.58 fold | 0.72 fold | 1.41 fold | 1.61 fold | 1.82 fold | 2.51 fold | 2.2 fold | 2.81 fold | 5.11 fold |
| P3, Ac-GRTDap(Pyr)RRFSYP-amide, serine-phosphorylated by PKA in the assay (peptide) | 1.98 fold | 1.13 fold | 0.97 fold | 1.19 fold | 1.34 fold | 1.47 fold | 1.02 fold | 2.23 fold | 2.72 fold | 1.91 fold |
| P4, Ac-GRDap(Pyr)GRRFSYP-amide, serine-phosphorylated by PKA in the assay (peptide) | 2.88 fold | 1.1 fold | 0.91 fold | 1.28 fold | 1.42 fold | 1.46 fold | 1.47 fold | 3.03 fold | 2.18 fold | 1.72 fold |
| phosphorylated P5 peptide AcDap(Pyr)RTGRRFS(PO3 2-)YP-amide | 3.45 fold | 1.02 fold | 0.95 fold | 1.43 fold | 1.52 fold | 1.79 fold | 2.05 fold | 6.21 fold | 2.72 fold | 3.61 fold |

same assay, conditions: not given

| Substance | PKA-induced fluorescence change; Trypan Blue 50x | Phosphorylation-induced fluorescence fold-change; P2/Ponceau S (1:50), plate reader - bottom read | Phosphorylation-induced fluorescence fold-change; P2/Ponceau S (1:50), plate reader - top read | Phosphorylation-induced fluorescence fold-change; P2/Ponceau S (1:50), spectrofluorimeter | Phosphorylation-induced fluorescence fold-change; P5/Rose Bengal (1:5), plate reader - bottom read | Phosphorylation-induced fluorescence fold-change; P5/Rose Bengal (1:5), plate reader - top read | Phosphorylation-induced fluorescence fold-change; P5/Rose Bengal (1:5), spectrofluorimeter |
| --- | --- | --- | --- | --- | --- | --- | --- |
| P2, Ac-GRTGRRDap(Pyr)SYP-amide, serine-phosphorylated by PKA in the assay (peptide) | 6.03 fold | 7 fold | 15 fold | 21 fold |  |  |  |
| P3, Ac-GRTDap(Pyr)RRFSYP-amide, serine-phosphorylated by PKA in the assay (peptide) | 1.6 fold |  |  |  |  |  |  |
| P4, Ac-GRDap(Pyr)GRRFSYP-amide, serine-phosphorylated by PKA in the assay (peptide) | 2.76 fold |  |  |  |  |  |  |
| phosphorylated P5 peptide AcDap(Pyr)RTGRRFS(PO3 2-)YP-amide | 3.48 fold |  |  |  | 8 fold | 30 fold | 64 fold |

target: cAMP-dependent protein kinase (PKA), murine catalytic subunit (murine) (UniProt P05132); assay: cell-based or functional assay

| Substance | IC50 of PKA activity (Deep Quench assay, P2/Ponceau S, 1 mM ATP) | IC50 of PKA activity (standard radioactive ATP method) |
| --- | --- | --- |
| PKI (14-22) peptide | 1.1 µM | 1.6 µM |

Source: patent US20080318246A1, “Deeply quenched enzyme sensors” (The Albert Einstein College of Medicine of Yeshiva …, priority 2007, published 2008)
